Patent publication US11045546 (CYTODYN, dated 2021)

Biological target: C-C chemokine receptor 5 (CCR5) (human, UniProt P51681 1-352)
Experiment: cell-based or functional assay

C-C chemokine receptor 5 (CCR5), sequence (P51681 whole entry): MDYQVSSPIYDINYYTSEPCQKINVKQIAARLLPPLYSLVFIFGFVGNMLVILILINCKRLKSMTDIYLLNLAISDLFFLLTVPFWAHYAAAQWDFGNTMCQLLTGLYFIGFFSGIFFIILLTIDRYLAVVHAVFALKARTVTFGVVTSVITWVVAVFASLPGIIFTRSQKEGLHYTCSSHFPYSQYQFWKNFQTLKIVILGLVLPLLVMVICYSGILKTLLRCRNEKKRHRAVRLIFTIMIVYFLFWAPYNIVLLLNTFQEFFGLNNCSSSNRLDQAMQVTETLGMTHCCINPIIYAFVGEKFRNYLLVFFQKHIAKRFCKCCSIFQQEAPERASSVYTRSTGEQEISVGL

B1: Leronlimab (PRO 140) (antibody, human IgG4, kappa, V domains shown)
VH: EVQLVESGGGLVKPGGSLRLSCAASGYTFSNYWIGWVRQAPGKGLEWIGDIYPGGNYIRNNEKFKDKTTLSADTSKNTAYLQMNSLKTEDTAVYYCGSSFGSNYVFAWFTYWGQGTLVTVSS
VL: DIVMTQSPLSLPVTPGEPASISCRSSQRLLSSYGHTYLHWYLQKPGQSPQLLIYEVSNRFSGVPDRFSGSGSGTDFTLKISRVEAEDVGVYYCSQSTHVPLTFGQGTKVEIKR
Question: Which results are given for B1?
Answer: inhibition of MIP-1α-induced calcium mobilization, IC50: 21.2 µg/mL; inhibition of MIP-1β-induced calcium mobilization, IC50: 39.6 µg/mL; inhibition of RANTES (CCL5)-induced calcium mobilization, IC50: 59.1 µg/mL
